“Also recorded” adds a separate entry of the source. Non-standard residues stand in square brackets, D forms with d. No end group written: not given here. Met(O) = CS(=O)CC[C@H](N)C(=O)O
biological target: T1, full-length human pituitary G protein-coupled receptor protein (phGR3) expressed in CHO-19P2 cells (Homo sapiens, UniProt P49683); assay: release of [3H] arachidonic acid metabolites from CHO-19P2 cells; type: cell-based; conditions: synthetic peptide diluted with 0.05% BSA-HBSS to 10^−12M-10^−6M; radioactivity of [3H] arachidonic acid metabolites released in supernatant
T1 construct: a ligation reaction was carried out to construct a full-length receptor protein expression plasmid pAKKO-19P2; expressed in transfected cells
T1 sequence (P49683 1-370): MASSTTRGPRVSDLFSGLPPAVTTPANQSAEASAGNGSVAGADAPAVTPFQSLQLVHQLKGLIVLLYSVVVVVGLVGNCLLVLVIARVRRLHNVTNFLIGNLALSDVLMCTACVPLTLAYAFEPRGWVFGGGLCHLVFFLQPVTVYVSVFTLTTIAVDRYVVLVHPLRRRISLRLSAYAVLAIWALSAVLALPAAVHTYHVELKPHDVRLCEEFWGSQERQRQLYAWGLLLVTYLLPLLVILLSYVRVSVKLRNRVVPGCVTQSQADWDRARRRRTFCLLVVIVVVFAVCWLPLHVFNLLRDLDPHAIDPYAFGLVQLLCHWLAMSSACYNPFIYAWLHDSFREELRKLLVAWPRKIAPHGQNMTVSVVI
Experimental: The full-length receptor protein-expressed CHO cells and mock CHO cells were seeded in a 24-well plate, 0.5×10^5 cells/well, and cultured for 24 hours. Then, [^3H] arachidonic acid was added at a final concentration of 0.25μCi/well. Sixteen (16) hours after addition of [^3H] arachidonic acid, the cells were rinsed with 0.05% BSA-HBSS and the above-mentioned crude peptide fraction was added, 400 μl/well. The mixture was incubated at 37 C. for 30 minutes and a 300 μl portion of the reaction mixture (400 μl) was added to a scintillator (4 ml) and the amount of [^3H] arachidonic acid metabolite released into the reaction mixture was determined with a scintillation counter. As a result, an arachidonic acid metabolite-releasing activity specific to the full-length receptor protein expressed CHO cells (CHO-19P2) was detected in the 30% CH3CN fraction of the eluate FIG. 16.
The activity of the peptide (19P2-L31) synthesized in Example 21 to specifically release arachidonic acid metabolites from CHO-19P2 cells was assayed in the same manner as Example 11. The synthetic peptide was dissolved in degassed distilled water at a concentration of 10^−3M and diluted with 0.05% BSA-HBSS and the activity to promote release of arachidonic acid metabolites from CHO-19P2 cells at each concentration was assayed using the amount of [^3H] arachidonic acid metabolites as the indicator.
The activity of the synthetic equivalent (19P2- L20) of natural peptide P-2 as synthesized in Example 23 to specifically promote release of arachidonic acid metabolites from CHO-19P2 cells was determined as in Example 11. Thus, the synthetic peptide was dissolved in degassed distilled water at a final concentration of 10^−3M and this solution was serially diluted with 0.05% BAS-HBSS. The activity to specifically promote release of arachidonic acid metabolites from CHO-19P2 cells at each concentration was assayed using the amount of [^3H] arachidonic acid metabolites as the indicator.

Substance | activity to specifically promote release of arachidonic acid metabolites from CHO-19P2 cells
Ser-Arg-Ala-His-Gln-His-Ser-Met(O)-Glu-Ile-Arg-Thr-Pro-Asp-Ile-Asn-Pro-Ala-Trp-Tyr-Ala-Gly-Arg-Gly-Ile-Arg-Pro-Val-Gly-Arg-Phe-NH2 (SRAHQHS[Met(O)]EIRTPDINPAWYAGRGIRPVGRF-NH2; N-terminus assumed; SMILES CC[C@H](C)[C@H](NC(=O)CNC(=O)[C@H](CCCNC(=N)N)NC(=O)CNC(=O)[C@H](C)NC(=O)[C@H](Cc1ccc(O)cc1)NC(=O)[C@H](Cc1c[nH]c2ccccc12)NC(=O)[C@H](C)NC(=O)[C@@H]1CCCN1C(=O)[C@H](CC(N)=O)NC(=O)[C@@H](NC(=O)[C@H](CC(=O)O)NC(=O)[C@@H]1CCCN1C(=O)[C@@H](NC(=O)[C@H](CCCNC(=N)N)NC(=O)[C@@H](NC(=O)[C@H](CCC(=O)O)NC(=O)[C@H](CCS(C)=O)NC(=O)[C@H](CO)NC(=O)[C@H](Cc1c[nH]cn1)NC(=O)[C@H](CCC(N)=O)NC(=O)[C@H](Cc1c[nH]cn1)NC(=O)[C@H](C)NC(=O)[C@H](CCCNC(=N)N)NC(=O)[C@@H](N)CO)[C@@H](C)CC)[C@@H](C)O)[C@@H](C)CC)C(=O)N[C@@H](CCCNC(=N)N)C(=O)N1CCC[C@H]1C(=O)N[C@H](C(=O)NCC(=O)N[C@@H](CCCNC(=N)N)C(=O)N[C@@H](Cc1ccccc1)C(N)=O)C(C)C) [19P2-L31(O), methionine-oxidation product of 19P2-L31] | equivalent to the activity of 19P2-L31; also recorded: found in a dose-dependent manner
Ser-Arg-Ala-His-Gln-His-Ser-Met-Glu-Ile-Arg-Thr-Pro-Asp-Ile-Asn-Pro-Ala-Trp-Tyr-Ala-Gly-Arg-Gly-Ile-Arg-Pro-Val-Gly-Arg-Phe-NH2 (SRAHQHSMEIRTPDINPAWYAGRGIRPVGRF-NH2) [19P2-L31] | concentration-dependent arachidonic acid metabolite-releasing activity was detected over the range of 10^−12M -10^−6M; also recorded: found in a concentration-dependent manner
Thr-Pro-Asp-Ile-Asn-Pro-Ala-Trp-Tyr-Ala-Gly-Arg-Gly-Ile-Arg-Pro-Val-Gly-Arg-Phe-NH2 (TPDINPAWYAGRGIRPVGRF-NH2) [19P2-L20] | concentration-dependent arachidonic acid metabolite-releasing activity was detected over the range of 10^−12 -10^−6M in nearly the same degree as 19P2-L31; also recorded: found in a dose-dependent manner

Source: patent US20020143152A1, “Polypeptides, their production and use” (priority 1997, published 2002)
